The values that follow come from publication PMC6242907, “Molecular basis of maintaining an oxidizing environment under anaerobiosis by soluble fumarate reductase” (Nature Communications, 2018).

Holding throughout (experiment): purified protein
Type in all cases: biochemical, Saccharomyces cerevisiae

Substrate in series [1]: Cc1cc2c(cc1C)N(C[C@H](O)[C@H](O)[C@H](O)COP(=O)(O)OP(=O)(O)OC[C@H]1O[C@@H](n3cnc4c(N)ncnc43)[C@H](O)[C@@H]1O)c1[nH]c(=O)[nH]c(=O)c1N2
As to conditions: printed as FAD, reduced in situ by excess sodium dithionite; fumarate as acceptor, anaerobic, PBS, 1 mM EDTA.

Substrate in series [2]: Cc1cc2c(cc1C)N(C[C@H](O)[C@H](O)[C@H](O)COP(=O)(O)O)c1[nH]c(=O)[nH]c(=O)c1N2
As to conditions: printed as FMN, reduced in situ by excess sodium dithionite; fumarate as acceptor, anaerobic, PBS, 1 mM EDTA.

Substrate in series [3]: Cc1cc2c(cc1C)N(C[C@H](O)[C@H](O)[C@H](O)CO)c1[nH]c(=O)[nH]c(=O)c1N2
As to conditions: printed as riboflavin, reduced in situ by excess sodium dithionite; fumarate as acceptor, anaerobic, PBS, 1 mM EDTA.

B1: Osm1 (Saccharomyces cerevisiae S288C) (protein)
chain: SMKQPVVVIGSGLAGLTTSNRLISKYRIPVVLLDKAASIGGNSIKASSGINGAHTDTQQNLKVMDTPELFLKDTLHSAKGRGVPSLMDKLTKESKSAIRWLQTEFDLKLDLLAQLGGHSVPRTHRSSGKLPPGFEIVQALSKKLKDISSKDSNLVQIMLNSEVVDIELDNQGHVTGVVYMDENGNRKIMKSHHVVFCSGGFGYSKEMLKEYSPNLIHLPTTNGKQTTGDGQKILSKLGAELIDMDQVQVHPTGFIDPNDRENNWKFLAAEALRGLGGILLHPTTGRRFTNELSTRDTVTMEIQSKCPKNDNRALLVMSDKVYENYTNNINFYMSKNLIKKVSINDLIRQYDLQTTASELVTELKSYSDVNTKDTFDRPLIINAFDKDISTESTVYVGEVTPVVHFTMGGVKINEKSQVIKKNSESVLSNGIFAAGEVSGGVHGANRLGGSSLLECVVFGKTAADNIAKLY
notes: residues 32-501, N-terminal His6 tag and thrombin site in pET28a, E. coli BL21(DE3); tag removed by trypsin for crystals
For the protein B1, the Km is reported as 2.858 µM in “purified protein [1]”, 5.847 (±2.0065) µM in the series “purified protein [2]” and 9.3745 (±4.991) µM in the series “purified protein [3]”.
